Consider 1 molecule from patent US20240228986A1, “ENGINEERED CELLS, ENZYMES, AND METHODS FOR PRODUCING CANNABINOIDS” (priority 2021, published 2024).

Common to all, as to assay type: cell-based, Yarrowia
For assay [1], the system named is olivetolic acid. Description: Fusions of different GPSs with MPT4, in vivo assay (Example 7). As to conditions: 1 mM olivetolic acid, 72 h quench. As for the experimental part: (§1) As described below, plasmids pCL-SE-0337, 0406, 0452 and 0453 were transformed into strain sCL-SE-0128. Multiple colonies per transformation were precultured for 24 h in YNB containing glycerol (2%), casamino acids (0.5%), and MES (100 mM pH 6.5). Pre-culture was used to inoculate assay medium comprised of YNB containing glycerol (2%), casamino acids (0.5%), MES (100 mM pH 6.5), and olivetolic acid (1 mM). Cultures were quenched after 72 h total growth and assayed for CBGA and F-CBGA. Averages and standard deviations were calculated from replicates.
However, sCL-SE-0128 expresses HMGR and GPS1.1 to increase intracellular GPP levels for prenylation of OA to CBGA. The plasmids that were transformed contain a gene expressing a fusion between two different GPSs and a prenyl-transferase. The same linker is used for all constructs. […] Additionally, as illustrated by GPS2 (pCL-SE-0453), certain GPS-MPT combinations result in very high CBGA/ FCBGA ratios.
(§2) Overnight YPD (10 g/L yeast extract, 20 g/L peptone, 2% dextrose) cultures were inoculated from glycerol stocks of the appropriate strain and grown at 30° C. with 250 rpm shaking. Once cultures had reached an OD600 of 4-6, cultures were centrifuged at 500×g for 5 min, supernatants were discarded, and cell pellets were resuspended in equal volume of water. Resuspended cells were centrifuged at 500×g for 5 min, supernatants were discarded, and cells were resuspended in a volume (75 μL×OD×Vculture) of transformation cocktail (45% PEG-400, 0.1 M LiAc, 0.1 M DTT, and 25 ug/100 μL SS Salmon Sperm DNA). For each transformation, >1 μg of plasmid DNA was added to 55 μL cells/transformation cocktail and vortexed for 2 s. Transformations were incubated at 39° C. for 1 h with 250 rpm shaking. Transformations were resuspended in 750 μL YPD with 1 M sorbitol and recovered at 30° C. overnight with 250 rpm shaking. The next day, transformations were centrifuged at 500×g for 5 min, supernatants were discarded, and cell pellets were resuspended in 750 YPD. Resuspended transformations were plated on YPD with appropriate selection or YNBD (6.71 g/L yeast nitrogen base+nitrogen, 0.5% casamino acids, 2% dextrose) agar plates and grown at 30° C. for 2 days. Individual colonies were patched onto YPD plates with appropriate selection or YNBD plates and grown at 30° C. overnight. Patches were used to inoculate 0.5 mL YPD with appropriate selection or YNBD precultures in 96 w blocks and grown at 30° C. for 24-48 h with 1000 rpm shaking. For assays, 0.5 mL YPD with appropriate selection or YNBD cultures containing substrate were inoculated with 2 μL from precultures and grown at 30° C. for 2-4 days with 1000 rpm shaking with 2% glucose added every 24 h. Assay cultures were quenched by addition of 0.5 mL ethanol with 0.2% formic acid and 0.5 mg/mL pentyl-benzoic acid. Precipitates were pelleted by centrifuging at 4600×g for 10 min and then 200 μL was transferred to fresh plates, sealed, and analyzed via HPLC.
(§3) All samples were quenched with equal volume of EtOH containing 0.2 mg/mL internal standard (3,5-Diisopropyl-2-hydroxybenzoic acid CAS #2215-21-6) centrifuged, and clarified solutions were analyzed by HPLC-MS
(§4) • Column: 2.1×50 mm COSMOCORE PBr (Nacalai USA, Inc.) • Mobile Phase: A; 0.1% formic acid in water, B; 0.1% formic acid in acetonitrile • Flow: 0.45 mL/min • Temp: % 50 Celsius • Gradient: 20%B at 0 min, 70%B at 2.3 min, 89% B at 4.2 min, 20% B at 4.3 min, 20%B at 6 min

In assay [2] the test system is olivetolic acid. Description: Linkers for GPS1.1-MPT4 fusions, in vivo assay (Example 6). As to conditions: 1 mM olivetolic acid, 72 h quench. How it is done:
as §1, with “described in detail” for “described”, “pCL-SE-0380 (MPT4), pCL-SE-0406, pCL-SE-0435,” for “pCL-SE-0337, 0406, 0452”, “pCL-SE-0437” for “0453”, “Four separate” for “Multiple”, “by mixing with equal volume of EtOH. Enzymes produced” for “and assayed for”, “FCBGA.” for “F-CBGA.”
However, sCL-SE-0128 expresses HMGR and GPS1.1 to increase intracellular GPP levels for prenylation of OA to CBGA. The plasmids that were transformed contain either a gene expressing a prenyl-transferase (pCL-SE-0380 (MPT4)) or a gene expressing a fusion between GPS1.1 and a prenyl-transferase with different linker sequences.
as §2, §3, §4

For another assay, the system named is hexanoic acid. In words: GPS-PKC-MPT fusions, hexanoic acid feed in vivo assay (Example 13). The conditions noted are these: hexanoic acid 2.5 mM plus 5 mM after 24 h, 48 h quench; strain SB-00311 + pCL-SE-0274; average of 44 or 34 transformants. As for the experimental part: Strain SB-00311 (HCS2, PKS1.1 and PKC1.1) was co-transformed with 1) a construct (pCL-SE-0274) for expression of HMGR and GPS1.1 and 2) a construct (pCL-SE-0406) for expression of a fusion protein that contains, from N- to C-terminus, GPS1.1 and MPT4 linked using the F11 linker sequence or a construct (pCL-SE-0474) for expression of a fusion protein that contains, from N- to C-terminus, GPS1.1, PKC1.1 and MPT4, each linked using the F11 linker sequence.
Transformants were assessed for CBGA production from hexanoic acid. Assay cultures consisted of YNBD+CAA media with 2.5 mM hexanoic acid. After 24 h, an additional 5 mM hexanoic acid was added to each assay culture. Cultures were quenched after 48 h total growth.
Overnight YPD (10 g/L yeast extract, 20 g/L peptone, 2% dextrose) cultures were inoculated from glycerol stocks of the appropriate strain and grown at 30° C. with 250 rpm shaking. Once cultures had reached an OD600 of 4-6, cultures were centrifuged at 500×g for 5 min, supernatants were discarded, and cell pellets were resuspended in equal volume of water. Resuspended cells were centrifuged at 500×g for 5 min, supernatants were discarded, and cells were resuspended in a volume (75 μL×OD×Vculture) of transformation cocktail (45% PEG-400, 0.1 M LiAc, 0.1 M DTT, and 25 ug/100 μL SS Salmon Sperm DNA). For each transformation, >1 μg of plasmid DNA was added to 55 μL cells/transformation cocktail and vortexed for 2 s. Transformations were incubated at 39° C. for 1 h with 250 rpm shaking. Transformations were resuspended in 750 μL YPD with 1 M sorbitol and recovered at 30° C. overnight with 250 rpm shaking. […] Precipitates were pelleted by centrifuging at 4600×g for 10 min and then 200 μL was transferred to fresh plates, sealed, and analyzed via HPLC.
All samples were quenched with equal volume of EtOH containing 0.2 mg/mL internal standard (3,5-Diisopropyl-2-hydroxybenzoic acid CAS #2215-21-6) centrifuged, and clarified solutions were analyzed by HPLC-MS […]

The test system of assay [3] is olivetolic acid. In words: MPT4.1 with and without GPS1.1 fusion vs MPT4 fusion, in vivo assay (Example 5). As to conditions: 3 mM olivetolic acid, 48 h quench. As for the experimental part: As described below, plasmids pCL-SE-0337.MPT4.1 and pCL-SE-0753 were transformed into strain sCL-SE-0128. Multiple colonies per transformation were precultured for 24 h in YNB containing glucose (2%), casamino acids (0.5%), and MES (100 mM pH 6.5). Pre-culture was used to inoculate assay medium comprised of YNB containing glucose (6%), casamino acids (0.5%), MES (100 mM pH 6.5), and olivetolic acid (3 mM). Cultures were quenched with equal volume of ethanol after 48 h total growth and assayed for CBGA and FCBGA. Averages and standard deviations were calculated from replicates.
as §2, §3, §4

The mark [4] stands for this setting: 2% glycerol, strain sCL-SE-0128.

B1: GPS1.1-F11-MPT4: fusion of GPS1.1 and MPT4 via F11 linker, SEQ ID NO: 16 (protein)
chain: MSKAKFESVFPRISEELVQLLRDEGLPQDAVQWFSDSLQYNCVGGKLNRGLSVVDTYQLLTGKKELDDEEYYRLALLGWLIELLQAFWLVSDDIMDESKTRRGQPCWYLKPKVGMIAIWDAFMLESGIYILLKKHFRQEKYYIDLVELFHDISFKTELGQLVDLLTAPEDEVDLNRFSLDKHSFIVRYKTAYYSFYLPVVLAMYVAGITNPKDLQQAMDVLIPLGEYFQVQDDYLDNFGDPEFIGKIGTDIQDNKCSWLVNKALQKATPEQRQILEDNYGVKDKSKELVIKKLYDDMKIEQDYLDYEEEVVGDIKKKIEQVDESRGFKKEVLNAFLAKIYKRQKGGAEAAAKEAAAKAGGSGGGSGGGGSGGSGGGGSGGGGSMSDNSIATKILNFGHTCWKLQRPYVVKGMISIACGLFGRELFNNRHLFSWGLMWKAFFALVPILSFNFFAAIMNQIYDVDIDRINKPDLPLVSGEMSIETAWILSIIVALTGLIVTIKLKSAPLFVFIYIFGIFAGFAYSVPPIRWKQYPFTNFLITISSHVGLAFTSYSATTSALGLPFVWRPAFSFIIAFMTVMGMTIAFAKDISDIEGDAKYGVSTVATKLGARNMTFVVSGVLLLNYLVSISIGIIWPQVFKSNIMILSHAILAFCLIFQTRELALANYASAPSRQFFEFIWLLYYAEYFVYVFI
modifications: GPS1.1-F11-MPT4, geranyl diphosphate synthase, membrane-bound prenyltransferase fusion protein
Take B1: the CBGA was 376 ± 41 µM in the assay with olivetolic acid [1] (setting [4]); 393 ± 41 µM with olivetolic acid [2] (setting [4]); 55.9 ± 26.4 µM with hexanoic acid; 326 ± 16 µM in the assay with olivetolic acid [3] (6% glucose, strain sCL-SE-0128). Also, the FCBGA with olivetolic acid [1] (setting [4]) is 51 ± 5 µM; with olivetolic acid [2] (setting [4]) it was 60 ± 5 µM; with olivetolic acid [3] (6% glucose, strain sCL-SE-0128) it was 62 ± 2 µM. In addition, the CBGA/FCBGA in the assay with olivetolic acid [1] (product ratio) was determined as 7.4; in the assay with olivetolic acid [2] (product ratio) it was 6.6; in the assay on olivetolic acid [3] (product ratio) it was 5.2.
